Reference: publication PMC2173703 (The Journal of Cell Biology, 2003)
Like-named read-outs stand apart in the source and are kept apart here. Where no end group is shown, it is not given here. [ ]: non-standard residue; d: D form. pY = N[C@@H](Cc1ccc(OP(=O)(O)O)cc1)C(=O)O; pT = C[C@@H](OP(=O)(O)O)[C@H](N)C(=O)O

T1: fluorescein-labeled Y644-phosphorylated PIPKIγ661 peptide
T1 peptide: fluorescein-CDERSWV[pY]SPLHYSAR

T2: fluorescein-labeled Y649-phosphorylated PIPKIγ661 peptide
T2 peptide: fluorescein-CDERSWVYSPLH[pY]SAR

B1: PIPKIγ661 peptide PN (nonphosphorylated) (peptide)
peptide: CDERSWVYSPLHYSAR
B2: β1-integrin peptide β1InpT (peptide)
peptide: CMNAKWD[pT]GENPIYKSA
B3: β1-integrin peptide β1InPN (nonphosphorylated) (peptide)
peptide: CMNAKWDTGENPIYKSA
B4: GST-talin head, wild type (human talin1 1–435) (domain or fragment)
chain: MVALSLKISIGNVVKTMQFEPSTMVYDACRIIRERIPEAPAGPPSDFGLFLSDDDPKKGIWLEAGKALDYYMLRNGDTMEYRKKQRPLKIRMLDGTVKTIMVDDSKTVTDMLMTICARIGITNHDEYSLVRELMEEKKEEITGTLRKDKTLLRDEKKMEKLKQKLHTDDELNWLDHGRTLREQGVEEHETLLLRRKFFYSDQNVDSRDPVQLNLLYVQARDDILNGSHPVSFDKACEFAGFQCQIQFGPHNEQKHKAGFLDLKDFLPKEYVKQKGERKIFQAHKNCGQMSEIEAKVRYVKLARSLKTYGVSFFLVKEKMKGKNKLVPRLLGITKECVMRVDEKTKEVIQEWNLTNIKRWAASPKSFTLDFGDYQDGYYSVQTTEGEQIAQLIAGYIDIILKKKKSKDHFGLEGDEESTMLEDSVSPKKSTVLQQQ

Experiments:
[1] = test system: tyrosine phosphorylation of PIPKIγ661 (Src family kinases); type: cell-based; conditions: HEK293T cells, 1 μM for 30 min at 37°C; Fig. 2 A
[2] = test system: integrin–talin interaction; conditions: ref Martel et al., 2001; cited from earlier work
[3] = target: B4; test: pull-down
[4] = target: B4; test: pull-down; remark: listed apart in the source
[5] = target: T1, fluorescein-labeled Y644-phosphorylated …; test: fluorescence polarisation
[6] = target: T2, fluorescein-labeled Y649-phosphorylated …; test: fluorescence polarisation

Molecule: CC(C)(C)n1nc(-c2ccc(Cl)cc2)c2c(N)ncnc21 [PP2]
- inhibition of basal and FAK-induced tyrosine phosphorylation of PIPKIγ661 [1]: inhibited

Molecule: Phosphatidylinositol 4,5-bisphosphate [PI4,5P2]
- increase of the integrin–talin binding affinity [2]: ~10 fold

Molecule: B1
- binding result [3]: binds

Molecule: B2
- binding result [4]: binds

Molecule: B3
- binding result [4]: binds

Molecule: B4
- fold increase in binding affinity against the nonphosphorylated peptide [5]: ~15 fold
- fold increase in binding affinity against the nonphosphorylated peptide [6]: ~15 fold
